Target: T1, N-terminal fluorescein-labeled ubiquitin (UniProt P0CG48 1-76, fluorescein on the N-terminus)
T1 construct: source: bought: Anaspec
Test: fluorescence polarisation; 1 uM fluorescein-labeled ubiquitin with varied concentrations of UBE3A HECT domain, 384-well plate, 30 °C; one-site specific binding model
Conditions: both partners purified

B1: UBE3A HECT domain, wild type (domain or fragment, human, UniProt Q05086-2 495-852, looked up)
chain: QLNPYLRLKVRRDHIIDDALVRLEMIAMENPADLKKQLYVEFEGEQGVDEGGVSKEFFQLVVEEIFNPDIGMFTYDESTKLFWFNPSSFETEGQFTLIGIVLGLAIYNNCILDVHFPMVVYRKLMGKKGTFRDLGDSHPVLYQSLKDLLEYEGNVEDDMMITFQISQTDLFGNPMMYDLKENGDKIPITNENRKEFVNLYSDYILNKSVEKQFKAFRRGFHMVTNESPLKYLFRPEEIELLICGSRNLDFQALEETTEYDGGYTRDSVLIREFWEIVHSFTDEQKRLFLQFTTGTDRAPVGGLGKLKMIIAKNGPDTERLPTSHTCFNVLLLPEYSSKEKLKERLLKAITYAKGFGML
notes: UBE3A, human, HECT domain; residue numbers follow human UBE3A isoform I (NP_001361390.1); Cloned into pRSFDuet-1 with an octa-histidine-GST double tag and a TEV site; also called WT HECT domain; WT UBE3A; not shown: His8, N-terminal, cleaved; GST, N-terminal, cleaved
Kd: 65.7 ± 28.5 µM

B2: UBE3A HECT domain Q588E (domain or fragment, human, UniProt Q05086-2 1-852, looked up)
chain: QLNPYLRLKVRRDHIIDDALVRLEMIAMENPADLKKQLYVEFEGEQGVDEGGVSKEFFQLVVEEIFNPDIGMFTYDESTKLFWFNPSSFETEGEFTLIGIVLGLAIYNNCILDVHFPMVVYRKLMGKKGTFRDLGDSHPVLYQSLKDLLEYEGNVEDDMMITFQISQTDLFGNPMMYDLKENGDKIPITNENRKEFVNLYSDYILNKSVEKQFKAFRRGFHMVTNESPLKYLFRPEEIELLICGSRNLDFQALEETTEYDGGYTRDSVLIREFWEIVHSFTDEQKRLFLQFTTGTDRAPVGGLGKLKMIIAKNGPDTERLPTSHTCFNVLLLPEYSSKEKLKERLLKAITYAKGFGML
notes: UBE3A, human, HECT domain with the patient variant Q588E; residue numbers follow human UBE3A isoform I (NP_001361390.1); Made by site-directed mutagenesis of the m1 construct; Q588E is a variant found in individuals (ClinVar); also called Q588E HECT domain; UBE3A Q588E; not shown: His8, N-terminal, cleaved; GST, N-terminal, cleaved
Kd: 18 ± 1.5 µM

— article PMC8635412, “Identification of disease-linked hyperactivating mutations in UBE3A through large-scale functional variant analysis” (Nature Communications, 2021)
